Results on 1 substance are retold here after patent US20090047240A1.

The target of experiment [1] is TLR7 expressed in HEK293 cells (UniProt Q9NYK1). Briefly: cell-based or functional assay.
For experiment [2], the target named is TLR9 expressed in HEK293 cells (UniProt Q9NR96). In words: cell-based or functional assay.
Chain of TLR9 expressed in HEK293 cells (Q9NR96 26-1032 limits assumed): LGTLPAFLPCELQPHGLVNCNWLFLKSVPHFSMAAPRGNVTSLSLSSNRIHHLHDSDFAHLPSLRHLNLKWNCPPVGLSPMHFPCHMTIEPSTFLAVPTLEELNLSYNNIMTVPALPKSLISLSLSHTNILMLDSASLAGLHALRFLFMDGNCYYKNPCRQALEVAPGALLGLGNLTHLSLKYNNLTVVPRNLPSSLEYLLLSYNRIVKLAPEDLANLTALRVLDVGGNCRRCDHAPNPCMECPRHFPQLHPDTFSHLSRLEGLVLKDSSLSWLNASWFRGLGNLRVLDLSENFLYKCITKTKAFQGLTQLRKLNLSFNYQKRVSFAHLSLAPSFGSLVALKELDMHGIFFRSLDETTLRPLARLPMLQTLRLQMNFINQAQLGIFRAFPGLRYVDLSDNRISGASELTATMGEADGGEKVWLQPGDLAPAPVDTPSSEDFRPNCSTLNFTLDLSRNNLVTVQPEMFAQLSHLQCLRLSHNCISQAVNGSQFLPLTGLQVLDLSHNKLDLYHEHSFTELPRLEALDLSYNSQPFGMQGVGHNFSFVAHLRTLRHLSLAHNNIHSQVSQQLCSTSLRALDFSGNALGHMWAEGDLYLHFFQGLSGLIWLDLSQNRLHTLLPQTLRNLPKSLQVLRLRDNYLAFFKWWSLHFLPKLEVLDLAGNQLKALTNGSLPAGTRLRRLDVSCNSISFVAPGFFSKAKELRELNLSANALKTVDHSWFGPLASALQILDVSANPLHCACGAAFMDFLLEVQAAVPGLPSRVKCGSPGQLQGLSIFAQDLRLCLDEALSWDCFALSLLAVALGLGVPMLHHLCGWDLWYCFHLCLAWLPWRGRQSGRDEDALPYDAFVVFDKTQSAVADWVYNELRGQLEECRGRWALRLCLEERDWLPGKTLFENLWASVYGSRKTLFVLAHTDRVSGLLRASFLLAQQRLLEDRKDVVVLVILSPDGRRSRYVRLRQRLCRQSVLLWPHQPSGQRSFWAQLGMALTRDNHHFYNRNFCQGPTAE

Chain of TLR7 expressed in HEK293 cells (Q9NYK1 27-1049 limits assumed): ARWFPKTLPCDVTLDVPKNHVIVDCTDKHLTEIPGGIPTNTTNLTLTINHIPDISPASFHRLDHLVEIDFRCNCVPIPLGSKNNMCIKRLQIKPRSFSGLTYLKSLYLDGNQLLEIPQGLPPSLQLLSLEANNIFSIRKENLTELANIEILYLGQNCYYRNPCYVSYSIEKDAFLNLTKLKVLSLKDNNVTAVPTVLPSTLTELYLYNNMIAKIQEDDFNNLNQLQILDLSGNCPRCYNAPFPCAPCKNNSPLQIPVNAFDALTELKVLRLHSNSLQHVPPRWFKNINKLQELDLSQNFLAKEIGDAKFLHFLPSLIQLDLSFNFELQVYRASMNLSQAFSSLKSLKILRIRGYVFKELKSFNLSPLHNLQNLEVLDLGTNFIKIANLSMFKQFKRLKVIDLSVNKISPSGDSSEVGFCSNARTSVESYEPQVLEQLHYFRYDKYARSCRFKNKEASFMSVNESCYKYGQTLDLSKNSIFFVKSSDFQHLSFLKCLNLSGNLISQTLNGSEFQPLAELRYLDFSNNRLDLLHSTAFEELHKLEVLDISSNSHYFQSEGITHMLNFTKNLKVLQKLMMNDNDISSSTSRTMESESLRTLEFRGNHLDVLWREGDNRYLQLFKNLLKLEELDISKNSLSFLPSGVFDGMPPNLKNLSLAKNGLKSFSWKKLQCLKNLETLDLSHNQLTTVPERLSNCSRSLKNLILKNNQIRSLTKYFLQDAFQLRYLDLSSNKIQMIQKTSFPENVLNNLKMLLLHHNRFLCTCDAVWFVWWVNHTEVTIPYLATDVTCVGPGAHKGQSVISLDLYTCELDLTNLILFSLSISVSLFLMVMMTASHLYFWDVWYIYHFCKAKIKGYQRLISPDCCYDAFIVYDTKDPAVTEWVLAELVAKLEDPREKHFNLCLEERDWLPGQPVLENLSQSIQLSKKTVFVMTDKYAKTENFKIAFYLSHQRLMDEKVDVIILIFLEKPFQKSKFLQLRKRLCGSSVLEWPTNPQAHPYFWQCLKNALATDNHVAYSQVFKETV

In the case of “recombinant human Cpn10 with an N-terminal Alanine residue (from UniProt P61604 2-102)”, in experiment [1], the NF-κB activation (luciferase reporter) in HEK293 cells expressing TLR7 and TLR4, stimulated with R848 (fold reduction) was 2. The substance also showed an NF-κB activation (luciferase reporter) in HEK293 cells expressing TLR9, stimulated with CpG DNA (fold reduction) in experiment [2] of 5 to 10.
